Measurements: the PETadex activity labels (doi:10.1074/jbc.m303867200)

Columns and labels:
Conditions in all cases: pH 8; 37 °C
p-NP-C12 = substrate: p-NP-C12
p-NP-C2 = substrate: p-NP-C2
p-NP-C3 = substrate: p-NP-C3
p-NP-C4 = substrate: p-NP-C4
p-NP-C6 = substrate: p-NP-C6

B1: unnamed (protein)
chain: MNNIWWQTKGQGNVHLVLLHGWGLNAEVWRCIDEELSSHFTLHLVDLPGFGRSRGFGALSLADMAEAVLQQAPDKAIWLGWSLGGLVASQIALTHPERVQALVTVASSPCFSARDEWPGIKPDVLAGFQQQLSDDFQRTVERFLALQTMGTETARQDARALKKTVLALPMPEVDVLNGGLEILKTVDLRQPLQNVSMPFLRLYGYLDGLVPRKVVPMLDKLWPHSESYIFAKAAHAPFISHPAEFCHLLVALKQRV
p-NP-C12
  Km: 600 µM
  kcat: 1.5 s⁻¹
  kcat/Km: 2500 M⁻¹ s⁻¹
p-NP-C2
  Km: 290 µM
  kcat: 18.5 s⁻¹
  kcat/Km: 63800 M⁻¹ s⁻¹
p-NP-C3
  Km: 350 µM
  kcat: 13.1 s⁻¹
  kcat/Km: 37400 M⁻¹ s⁻¹
p-NP-C4
  Km: 330 µM
  kcat: 6.1 s⁻¹
  kcat/Km: 18500 M⁻¹ s⁻¹
p-NP-C6
  Km: 250 µM
  kcat: 4 s⁻¹
  kcat/Km: 16000 M⁻¹ s⁻¹
